In one data set the test system is P04501. Nature of the data set: SEC-MALS; Superdex 200 Increase 10/300 GL, 1X TBS, 1 mL/min; 100 µL at 2.5-2.8 mg/mL in PBS with 5% glycerol; native (oxidized) or reduced with DTT (1.6 mM, 50 °C 10 min, then a further 1.6 mM).
Data set [1] has as its target recombinant human desmoglein 2 (human) (UniProt Q14126).
The target is the same in data set [2]. Description: SPR; rhDSG2 amine-coupled to a CM5 chip (6000 RU), junction openers flowed; Biacore 3000, 25 °C; 10 mM HEPES, 150 mM NaCl, 0.005% surfactant P20, 2 mM CaCl2 pH 7.4; 15 µl/min; 1:1 Langmuir fit; apparent (avidity). On the technique in general: In SPR one partner is held on a chip, and binding of the other changes the refractive index at the surface.

For data set [3], the target named is JO-4 (Adenovirus serotype 3 (Ad3)) (UniProt P04501). Description: SEC-MALS; Superdex 200 Increase 10/300 GL, 1X TBS, 1 mL/min; 100 µL at 2.5-2.8 mg/mL in PBS with 5% glycerol; native (oxidized) or reduced with DTT (1.6 mM, 50 °C 10 min, then a further 1.6 mM). On the technique in general: In gel filtration, larger molecules generally elute earlier.
Data set [4] deals with recombinant human desmoglein 2 (human) (UniProt Q14126). The source holds these as a separate data set.
The target in data set [5] is GB7_(V239D) (Adenovirus serotype 3 (Ad3)) (UniProt P04501). Description: SPR; JO-4 or GB7_(V239D) amine-coupled to a CM5 chip (approximately 6000 RU), rhDSG2 flowed (17.4 nM to 0.87 nM, triplicate); Biacore 3000, 25 °C; 10 mM HEPES, 150 mM NaCl, 0.005% surfactant P20, 2 mM CaCl2 pH 7.4; 15 µl/min; 1:1 Langmuir fit; apparent (avidity).
In data set [6] the target is JO-4 (Adenovirus serotype 3 (Ad3)) (UniProt P04501). Described as above.

In the data set with P04501, JO-4 displayed a % total as Aggregate (Agg.), oxidized of 90% and a % total as Aggregate (Agg.), reduced of 94%.

Broadly, the koff is the rate constant with which the complex falls apart. By kon is commonly meant the rate constant with which the complex forms. One may read the stoichiometry N as a count of units in the complex or per binding partner. For “JO-4 (from UniProt P04501 127-319) (designed binder)”, the DSG2 shedding (fold over PBS treated at 48 h), ELISA of shed DSG2 in data set [1] stood at 1.44 fold. In addition, in data set [2], the Kd was 11.4 nM, the dissociation rate constant (koff) turned out to be 0.00264 s⁻¹ and the on-rate constant (kon) came to 232000 M⁻¹ s⁻¹. In addition, in data set [3], the % total as Monomer (M), oxidized was 4%; the % total as Monomer (M), reduced worked out at 3%; the % total as Multimer (Multi.), oxidized worked out at 4%; the % total as Multimer (Multi.), reduced was less than 0.5%. In data set [3], this substance gave a % total as Trimer (T), oxidized of 2%; a % total as Trimer (T), reduced of 2%; a % total as Trimer-Dimer (T-D), oxidized of less than 0.5%; a % total as Trimer-Dimer (T-D), reduced of 1%. In data set [3], this substance registered a stoichiometry N of 3. The VIA IC50: inhibition of entry of Ad3-GFP reporter virus into HeLa cells (blocks Ad3 virus on DSG2) in data set [4] stood at 0.067 µg/mL.

Turning to “recombinant human desmoglein 2 (from UniProt Q14126 50-609) (natural protein)”, in data set [5], the Kd came to 1.19 nM, the off-rate (koff) stood at 0.00075 s⁻¹ and the on-rate constant (kon) is 630000 M⁻¹ s⁻¹. In data set [6], the Kd amounted to 0.58 nM, the off-rate constant (koff) worked out at 0.00046 s⁻¹ and the kon came out at 790000 M⁻¹ s⁻¹.

For the origin of these results see publication PMC6467980.
